Results taken from paper PMC6555819, “Comprehensive study of nuclear receptor DNA binding provides a revised framework for understanding receptor specificity”.

B1: NRC3_wobSeed10_DR0_G14A_o1 (dsDNA)
DNA 1: GCATCGAAAGGTCAAGGTGAGTATAGAGAAAGGGAAGCGATTGACAGCGTAGAATGAAGG
DNA 2: CCTTCATTCTACGCTGTCAATCGCTTCCCTTTCTCTATACTCACCTTGACCTTTCGATGC
B2: NRC3_wobSeed82_DR3_G14A_o1 (dsDNA)
DNA 1: GCATCGAAAGGTCAACGAGGTGAGTATACACCGTTTGCGATTGACAGCGTAGAATGAAGG
DNA 2: CCTTCATTCTACGCTGTCAATCGCAAACGGTGTATACTCACCTCGTTGACCTTTCGATGC
B3: NRC3_random_hg19_29_o1 (dsDNA)
DNA 1: GCGGTTGAATGCCCAGATAGTACACACACCAAGCTTGCGATTGACAGCGTAGAATGAAGG
DNA 2: CCTTCATTCTACGCTGTCAATCGCAAGCTTGGTGTGTGTACTATCTGGGCATTCAACCGC
B4: NRC3_random_hg19_334_o1 (dsDNA)
DNA 1: GCTGCTGACTTGCTGGTTAGAGGGAACACATTCCCAGCGATTGACAGCGTAGAATGAAGG
DNA 2: CCTTCATTCTACGCTGTCAATCGCTGGGAATGTGTTCCCTCTAACCAGCAAGTCAGCAGC
B5: NRC3_wobSeed116_DR4_A21T_o1 (dsDNA)
DNA 1: GCAGAATGAGGTTACCAAAGTTCAGGGAAACGCTTGGCGATTGACAGCGTAGAATGAAGG
DNA 2: CCTTCATTCTACGCTGTCAATCGCCAAGCGTTTCCCTGAACTTTGGTAACCTCATTCTGC
B6: NRC3_wobSeed120_DR4_G16T_o1 (dsDNA)
DNA 1: GCCCGAGTAGGTTACTAGGGGGCATTCAGTGCGAATGCGATTGACAGCGTAGAATGAAGG
DNA 2: CCTTCATTCTACGCTGTCAATCGCATTCGCACTGAATGCCCCCTAGTAACCTACTCGGGC
B7: NRC3_wobSeed113_DR4_T12A_o1 (dsDNA)
DNA 1: GCATATGTAGGATAGCTGGGGTCATTCAGACTAGGCGCGATTGACAGCGTAGAATGAAGG
DNA 2: CCTTCATTCTACGCTGTCAATCGCGCCTAGTCTGAATGACCCCAGCTATCCTACATATGC
B8: NRC3_random_hg19_378_o1 (dsDNA)
DNA 1: GCATCATCTTGCGTATGTTGATTGATGTCTCATGTGGCGATTGACAGCGTAGAATGAAGG
DNA 2: CCTTCATTCTACGCTGTCAATCGCCACATGAGACATCAATCAACATACGCAAGATGATGC
B9: NRC3_wobSeed73_DR3_C7A_o1 (dsDNA)
DNA 1: GCCAAAATAGGTCACAGAGGTCAAAGTCCGTGCGTAGCGATTGACAGCGTAGAATGAAGG
DNA 2: CCTTCATTCTACGCTGTCAATCGCTACGCACGGACTTTGACCTCTGTGACCTATTTTGGC
B10: NRC3_random_hg19_484_o1 (dsDNA)
DNA 1: GCCAGCAAACTAGGAATCAAGAAACTGAGTTCTGGCGCGATTGACAGCGTAGAATGAAGG
DNA 2: CCTTCATTCTACGCTGTCAATCGCGCCAGAACTCAGTTTCTTGATTCCTAGTTTGCTGGC

Molecular target: LXRb:RXRa (Homo sapiens, UniProt P55055;P19793 full;full)
Sequence (P55055 whole entry, chain 1 of 2): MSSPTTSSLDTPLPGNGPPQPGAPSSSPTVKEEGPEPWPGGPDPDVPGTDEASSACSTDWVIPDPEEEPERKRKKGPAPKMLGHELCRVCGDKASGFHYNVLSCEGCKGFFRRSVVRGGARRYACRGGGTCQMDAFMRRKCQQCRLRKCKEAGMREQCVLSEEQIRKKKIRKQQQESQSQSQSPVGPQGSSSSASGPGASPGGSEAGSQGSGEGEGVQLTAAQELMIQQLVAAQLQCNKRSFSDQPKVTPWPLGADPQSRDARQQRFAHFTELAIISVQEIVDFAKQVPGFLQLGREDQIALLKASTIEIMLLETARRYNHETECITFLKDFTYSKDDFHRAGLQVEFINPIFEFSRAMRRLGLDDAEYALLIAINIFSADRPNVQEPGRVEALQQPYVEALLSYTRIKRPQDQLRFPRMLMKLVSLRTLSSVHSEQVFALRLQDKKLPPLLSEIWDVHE
Sequence (P19793 whole entry, chain 2 of 2): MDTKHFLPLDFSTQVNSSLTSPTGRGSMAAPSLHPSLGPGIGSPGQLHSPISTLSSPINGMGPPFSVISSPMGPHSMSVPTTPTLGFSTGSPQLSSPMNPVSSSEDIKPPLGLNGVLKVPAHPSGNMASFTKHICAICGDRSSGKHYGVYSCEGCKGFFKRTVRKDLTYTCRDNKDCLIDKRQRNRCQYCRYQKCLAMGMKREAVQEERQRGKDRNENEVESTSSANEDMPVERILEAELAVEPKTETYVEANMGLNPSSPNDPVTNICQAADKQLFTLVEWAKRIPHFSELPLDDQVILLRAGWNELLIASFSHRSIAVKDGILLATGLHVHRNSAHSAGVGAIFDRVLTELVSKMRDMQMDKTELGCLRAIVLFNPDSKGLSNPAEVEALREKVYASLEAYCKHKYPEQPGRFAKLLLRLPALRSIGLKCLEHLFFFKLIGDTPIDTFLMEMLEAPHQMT
Test: no ligand; PBM; 270 nM : 90 nM RXRa; PBS pH 7.4, 2% milk, 0.02% Triton X-100, 1 mM DTT, BSA, 0.4 mg/ml salmon testes DNA
Settings: tags: His kept;His cleaved; copies: 1;1; label: surface-attached array probe
Method in brief: (§1)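 Binding buffer was PBS pH 7.4 with 2% milk, 0.02% Triton X-100, 1 mM DTT, 0.2 mg/mL BSA and 0.4 mg/ml salmon testes DNA. In it, ligand-free nuclear receptor dimers were incubated 1 h on custom Agilent 4×180K protein-binding microarrays carrying double-stranded probes. Antibodies against each partner (one per run) detected binding, and z-scores were calculated against random background probes after regression normalization of scanned fluorescence.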

Binder	binding signal
B1	5.9 PBM z-score against 500 random probes
B2	6.3 PBM z-score against 500 random probes
B3	0.12 PBM z-score against 500 random probes
B4	-0.46 PBM z-score against 500 random probes
B5	6.78 PBM z-score against 500 random probes
B6	7.83 PBM z-score against 500 random probes
B7	3.83 PBM z-score against 500 random probes
B8	-0.13 PBM z-score against 500 random probes
B9	7.08 PBM z-score against 500 random probes
B10	-0.51 PBM z-score against 500 random probes

Molecular target: LXRa:RXRa (Homo sapiens, UniProt Q13133;P19793 full;full)
Sequence (Q13133 whole entry, chain 1 of 2): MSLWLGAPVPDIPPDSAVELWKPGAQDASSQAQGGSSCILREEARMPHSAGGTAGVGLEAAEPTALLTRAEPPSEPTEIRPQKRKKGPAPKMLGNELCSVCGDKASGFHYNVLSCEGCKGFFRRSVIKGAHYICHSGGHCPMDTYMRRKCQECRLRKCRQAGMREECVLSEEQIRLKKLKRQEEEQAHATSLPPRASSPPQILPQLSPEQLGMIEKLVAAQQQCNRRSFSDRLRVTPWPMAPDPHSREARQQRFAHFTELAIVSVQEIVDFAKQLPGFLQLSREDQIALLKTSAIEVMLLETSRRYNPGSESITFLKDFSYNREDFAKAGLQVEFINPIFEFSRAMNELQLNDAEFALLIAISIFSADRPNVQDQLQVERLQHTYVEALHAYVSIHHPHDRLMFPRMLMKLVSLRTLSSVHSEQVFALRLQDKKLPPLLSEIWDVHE
Sequence (P19793 whole entry, chain 2 of 2): as the sequence (P19793 whole entry, chain 2 of 2) above
Test: as above
Settings: tags: His kept;His cleaved; copies: 1;1; label: surface-attached array probe
Method in brief: as §1

Binder	binding signal
B1	7.08 PBM z-score against 500 random probes
B2	7.22 PBM z-score against 500 random probes
B3	-0.08 PBM z-score against 500 random probes
B4	-0.52 PBM z-score against 500 random probes
B5	8.81 PBM z-score against 500 random probes
B6	8.51 PBM z-score against 500 random probes
B7	3.41 PBM z-score against 500 random probes
B8	-0.34 PBM z-score against 500 random probes
B9	7.23 PBM z-score against 500 random probes
B10	-0.57 PBM z-score against 500 random probes

Molecular target: FXR:RXRa (Homo sapiens, UniProt Q96RI1;P19793 full;full)
Sequence (Q96RI1 whole entry, chain 1 of 2): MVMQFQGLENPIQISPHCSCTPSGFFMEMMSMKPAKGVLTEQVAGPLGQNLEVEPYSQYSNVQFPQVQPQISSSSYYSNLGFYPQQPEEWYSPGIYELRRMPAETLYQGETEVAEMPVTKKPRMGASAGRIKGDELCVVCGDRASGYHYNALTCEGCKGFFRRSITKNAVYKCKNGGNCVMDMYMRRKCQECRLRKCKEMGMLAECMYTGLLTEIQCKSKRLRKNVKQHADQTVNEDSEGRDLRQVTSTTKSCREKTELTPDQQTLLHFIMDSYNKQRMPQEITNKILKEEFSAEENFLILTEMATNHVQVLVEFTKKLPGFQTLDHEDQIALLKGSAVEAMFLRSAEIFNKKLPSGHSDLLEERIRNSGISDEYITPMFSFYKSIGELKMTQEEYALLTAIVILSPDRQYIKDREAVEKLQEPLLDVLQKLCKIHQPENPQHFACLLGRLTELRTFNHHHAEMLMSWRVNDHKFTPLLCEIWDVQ
Sequence (P19793 whole entry, chain 2 of 2): as the sequence (P19793 whole entry, chain 2 of 2) above
Test: as above
Settings: tags: His kept;His cleaved; copies: 1;1; label: surface-attached array probe
Method in brief: as §1

Binder	binding signal
B1	8.27 PBM z-score against 500 random probes
B2	8.61 PBM z-score against 500 random probes
B9	8.03 PBM z-score against 500 random probes

Molecular target: VDR:RXRa (Homo sapiens, UniProt P11473;P19793 full;full)
Sequence (P11473 whole entry, chain 1 of 2): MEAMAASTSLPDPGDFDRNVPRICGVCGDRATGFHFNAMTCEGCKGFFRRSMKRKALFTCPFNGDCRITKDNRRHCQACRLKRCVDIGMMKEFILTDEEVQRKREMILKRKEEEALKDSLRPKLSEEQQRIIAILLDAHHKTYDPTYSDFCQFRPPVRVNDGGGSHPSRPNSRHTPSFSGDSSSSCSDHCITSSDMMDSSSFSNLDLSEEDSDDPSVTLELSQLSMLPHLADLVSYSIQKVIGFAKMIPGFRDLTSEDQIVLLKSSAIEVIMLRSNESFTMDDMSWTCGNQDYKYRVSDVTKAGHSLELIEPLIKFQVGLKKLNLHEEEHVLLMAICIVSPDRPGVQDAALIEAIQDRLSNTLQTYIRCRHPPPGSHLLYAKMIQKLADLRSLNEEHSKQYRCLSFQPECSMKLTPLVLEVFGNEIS
Sequence (P19793 whole entry, chain 2 of 2): as the sequence (P19793 whole entry, chain 2 of 2) above
Test: as above
Settings: tags: His kept;His cleaved; copies: 1;1; label: surface-attached array probe
Method in brief: as §1

Binder	binding signal
B2	7.33 PBM z-score against 500 random probes

Molecular target: PPARa:RXRa (Homo sapiens, UniProt Q07869;P19793 full;full)
Sequence (Q07869 whole entry, chain 1 of 2): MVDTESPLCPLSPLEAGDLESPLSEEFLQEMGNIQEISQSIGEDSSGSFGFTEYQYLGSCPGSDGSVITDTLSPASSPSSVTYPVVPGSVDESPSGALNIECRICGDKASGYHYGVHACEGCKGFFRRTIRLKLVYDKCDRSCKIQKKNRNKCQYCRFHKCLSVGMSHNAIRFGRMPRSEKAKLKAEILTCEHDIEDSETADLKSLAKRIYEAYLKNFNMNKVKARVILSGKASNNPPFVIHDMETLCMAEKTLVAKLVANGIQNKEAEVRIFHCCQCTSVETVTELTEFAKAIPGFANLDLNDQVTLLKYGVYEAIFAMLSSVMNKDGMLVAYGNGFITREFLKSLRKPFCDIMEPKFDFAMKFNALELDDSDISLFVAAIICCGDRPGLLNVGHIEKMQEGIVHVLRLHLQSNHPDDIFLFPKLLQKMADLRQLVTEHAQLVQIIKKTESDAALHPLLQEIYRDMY
Sequence (P19793 whole entry, chain 2 of 2): as the sequence (P19793 whole entry, chain 2 of 2) above
Test: as above
Settings: tags: GST kept;His cleaved; copies: 1;1; label: surface-attached array probe
Method in brief: as §1

Binder	binding signal
B1	7.41 PBM z-score against 500 random probes
B2	6.87 PBM z-score against 500 random probes
B6	3.42 PBM z-score against 500 random probes
B9	6.98 PBM z-score against 500 random probes
B10	-0.5 PBM z-score against 500 random probes

Molecular target: RARb:RXRa (Homo sapiens, UniProt P10826;P19793 full;full)
Sequence (P10826 whole entry, chain 1 of 2): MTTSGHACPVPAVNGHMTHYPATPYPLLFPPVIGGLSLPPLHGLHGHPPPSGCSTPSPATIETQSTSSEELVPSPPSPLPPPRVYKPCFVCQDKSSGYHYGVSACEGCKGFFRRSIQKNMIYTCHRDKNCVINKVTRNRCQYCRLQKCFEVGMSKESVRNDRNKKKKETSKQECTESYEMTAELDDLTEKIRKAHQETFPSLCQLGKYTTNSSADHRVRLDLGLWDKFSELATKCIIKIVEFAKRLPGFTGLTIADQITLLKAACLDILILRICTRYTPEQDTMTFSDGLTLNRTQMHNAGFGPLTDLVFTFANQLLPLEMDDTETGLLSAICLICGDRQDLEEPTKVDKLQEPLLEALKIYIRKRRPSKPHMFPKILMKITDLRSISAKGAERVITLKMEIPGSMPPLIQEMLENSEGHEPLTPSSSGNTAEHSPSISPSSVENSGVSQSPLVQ
Sequence (P19793 whole entry, chain 2 of 2): as the sequence (P19793 whole entry, chain 2 of 2) above
Test: as above
Settings: tags: His kept;His cleaved; copies: 1;1; label: surface-attached array probe
Method in brief: as §1

Binder	binding signal
B1	6.24 PBM z-score against 500 random probes
B2	6.1 PBM z-score against 500 random probes
B3	-0.14 PBM z-score against 500 random probes
B9	5.84 PBM z-score against 500 random probes

Molecular target: RARg:RXRa (Homo sapiens, UniProt P13631;P19793 full;full)
Sequence (P13631 whole entry, chain 1 of 2): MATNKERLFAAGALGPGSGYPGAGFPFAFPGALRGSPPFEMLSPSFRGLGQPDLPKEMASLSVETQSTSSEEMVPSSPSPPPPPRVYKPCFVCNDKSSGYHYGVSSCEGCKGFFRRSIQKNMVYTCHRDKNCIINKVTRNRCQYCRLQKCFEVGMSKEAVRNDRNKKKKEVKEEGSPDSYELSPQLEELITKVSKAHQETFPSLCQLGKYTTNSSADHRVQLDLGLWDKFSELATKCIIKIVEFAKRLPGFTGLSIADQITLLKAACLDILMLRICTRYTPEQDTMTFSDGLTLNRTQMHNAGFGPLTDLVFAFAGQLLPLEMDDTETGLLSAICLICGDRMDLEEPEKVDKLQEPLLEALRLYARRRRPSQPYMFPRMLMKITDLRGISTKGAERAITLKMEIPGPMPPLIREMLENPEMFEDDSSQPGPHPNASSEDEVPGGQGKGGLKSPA
Sequence (P19793 whole entry, chain 2 of 2): as the sequence (P19793 whole entry, chain 2 of 2) above
Test: as above
Settings: tags: His kept;His cleaved; copies: 1;1; label: surface-attached array probe
Method in brief: as §1

Binder	binding signal
B1	7.61 PBM z-score against 500 random probes
B2	7.92 PBM z-score against 500 random probes
B8	0.26 PBM z-score against 500 random probes
B9	7.78 PBM z-score against 500 random probes

Molecular target: RXRa (Homo sapiens, UniProt P19793)
Sequence (P19793 whole entry): as the sequence (P19793 whole entry, chain 2 of 2) above
Test: no ligand; PBM; 180 nM; PBS pH 7.4, 2% milk, 0.02% Triton X-100, 1 mM DTT, BSA, 0.4 mg/ml salmon testes DNA
Settings: tags: His cleaved; chain copies: 2; label: surface-attached array probe

Binder	binding signal
B1	8.13 PBM z-score against 500 random probes
B2	8.25 PBM z-score against 500 random probes
B10	-0.22 PBM z-score against 500 random probes
